Positions count from the first letter of the chain named.

B1: DART-A-M7 (bispecific antibody)
chain 1: DFVMTQSPDSLAVSLGERVTMSCKSSQSLLNSGNQKNYLTWYQQKPGQPPKLLIYWASTRESGVPDRFSGSGSGTDFTLTISSLQAEDVAVYYCQNDYSYPYTFGQGTKLEIKGGGSGGGGEVQLVESGGGLVQPGGSLRLSCAASGFTFSTYAMNWVRQAPGKGLEWVGRIRSKYNNYATYYADSVKDRFTISRDDSKNSLYLQMNSLKTEDTAVYYCVRHDNFGNSYVSWFAYWGQGTLVTVSSGGCGGGKVAALKEKVAALKEKVAALKEKVAALKE
chain 2: QAVVTQEPSLTVSPGGTVTLTCRSSTGAVTTSNYANWVQQKPGQAPRGLIGGTNKRAPWTPARFSGSLLGGKAALTITGAQAEDEADYYCALWYSNLWVFGGGTKLTVLGGGGSGGGGEVQLVQSGAELKKPGASVKVSCKASGYTFTDYYMKWVRQAPGQGLEWIGDIIPSNGATFYNQKFKGRVTITVDKSTSTAYMELSSLRSEDTAVYYCARSHLLRASWFAYWGQGTLVTVSSGGCGGGEVAALEKEVAALEKEVAALEKEVAALEK
B2: DART-A-M15 (bispecific antibody)
chain 1: B1 chain 1 with T152E, D223G
chain 2: B1 chain 2
B3: DART-A-M17 (bispecific antibody)
chain 1: B1 chain 1 with Y153T, D223G
chain 2: B1 chain 2
B4: DART-A-M12 (bispecific antibody)
chain 1: B1 chain 1 with D223G, W232Y
chain 2: B1 chain 2
B5: DART-A-M19 (bispecific antibody)
chain 1: B1 chain 1 with D223K, F225I
chain 2: B1 chain 2
B6: DART-A-M18 (bispecific antibody)
chain 1: B1 chain 1 with A154G, D223G
chain 2: B1 chain 2
B7: DART-A-M13 (bispecific antibody)
chain 1: B1 chain 1 with D223G, Y235E
chain 2: B1 chain 2

For the first test, the target named is CD3 on T-cells (UniProt P07766). The test is described as follows: cell-based or functional assay.
Sequence of CD3 on T-cells (P07766 23-207): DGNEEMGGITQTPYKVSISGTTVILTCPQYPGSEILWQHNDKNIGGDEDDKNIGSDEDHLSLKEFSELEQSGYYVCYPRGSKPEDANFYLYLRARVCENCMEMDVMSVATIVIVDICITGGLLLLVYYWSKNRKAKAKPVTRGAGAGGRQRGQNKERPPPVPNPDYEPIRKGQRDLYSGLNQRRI
Regarding B1, the EC50 of cytolysis at 18 hours (CTL assay, Pan-T-cells and MOLM-13, E:T = 5:1) was found to be 0.304 ng/mL; the EC50 of cytolysis at 42 hours (CTL assay, Pan-T-cells and MOLM-13, E:T = 5:1) worked out at 0.03 ng/mL; the R: ratio of 18 hour EC50 to DART-A-WT (CTL assay, Pan-T-cells and MOLM-13, E:T = 5:1) was found to be 3.8; the R: ratio of 42 hour EC50 to DART-A-WT (CTL assay, Pan-T-cells and MOLM-13, E:T = 5:1) is 10.8. Also, the max % CytoTox at 18 hours (CTL assay, Pan-T-cells and MOLM-13, E:T = 5:1) was determined as 41.4%; the max % CytoTox at 42 hours (CTL assay, Pan-T-cells and MOLM-13, E:T = 5:1) stood at 32.5%.

On to B2, for which the EC50 of cytolysis at 18 hours (CTL assay, Pan-T-cells and MOLM-13, E:T = 5:1) was 4.16 ng/mL; the EC50 of cytolysis at 42 hours (CTL assay, Pan-T-cells and MOLM-13, E:T = 5:1) was found to be 0.975 ng/mL; the R: ratio of 18 hour EC50 to DART-A-WT (CTL assay, Pan-T-cells and MOLM-13, E:T = 5:1) was 52.7; the R: ratio of 42 hour EC50 to DART-A-WT (CTL assay, Pan-T-cells and MOLM-13, E:T = 5:1) was 347. Further, the max % CytoTox at 18 hours (CTL assay, Pan-T-cells and MOLM-13, E:T = 5:1) turned out to be 42.7%; the max % CytoTox at 42 hours (CTL assay, Pan-T-cells and MOLM-13, E:T = 5:1) turned out to be 32%.

Turning to B3, the EC50 of cytolysis at 18 hours (CTL assay, Pan-T-cells and MOLM-13, E:T = 5:1) is 1.28 ng/mL; the EC50 of cytolysis at 42 hours (CTL assay, Pan-T-cells and MOLM-13, E:T = 5:1) is 0.126 ng/mL; the R: ratio of 18 hour EC50 to DART-A-WT (CTL assay, Pan-T-cells and MOLM-13, E:T = 5:1) turned out to be 16.2; the R: ratio of 42 hour EC50 to DART-A-WT (CTL assay, Pan-T-cells and MOLM-13, E:T = 5:1) was 44.9. The max % CytoTox at 18 hours (CTL assay, Pan-T-cells and MOLM-13, E:T = 5:1) was 44.2%; the max % CytoTox at 42 hours (CTL assay, Pan-T-cells and MOLM-13, E:T = 5:1) is 30.7%.

In the case of B4, the EC50 of cytolysis at 18 hours (CTL assay, Pan-T-cells and MOLM-13, E:T = 5:1) stood at 0.372 ng/mL; the EC50 of cytolysis at 42 hours (CTL assay, Pan-T-cells and MOLM-13, E:T = 5:1) is 0.067 ng/mL; the R: ratio of 18 hour EC50 to DART-A-WT (CTL assay, Pan-T-cells and MOLM-13, E:T = 5:1) turned out to be 4.7; the R: ratio of 42 hour EC50 to DART-A-WT (CTL assay, Pan-T-cells and MOLM-13, E:T = 5:1) was determined as 24. The max % CytoTox at 18 hours (CTL assay, Pan-T-cells and MOLM-13, E:T = 5:1) is 49.7%; the max % CytoTox at 42 hours (CTL assay, Pan-T-cells and MOLM-13, E:T = 5:1) was 31.5%.

Turning to B5, the EC50 of cytolysis at 18 hours (CTL assay, Pan-T-cells and MOLM-13, E:T = 5:1) is 0.68 ng/mL; the EC50 of cytolysis at 42 hours (CTL assay, Pan-T-cells and MOLM-13, E:T = 5:1) was determined as 0.11 ng/mL; the R: ratio of 18 hour EC50 to DART-A-WT (CTL assay, Pan-T-cells and MOLM-13, E:T = 5:1) was 8.6; the R: ratio of 42 hour EC50 to DART-A-WT (CTL assay, Pan-T-cells and MOLM-13, E:T = 5:1) is 39.1. The max % CytoTox at 18 hours (CTL assay, Pan-T-cells and MOLM-13, E:T = 5:1) worked out at 41%; the max % CytoTox at 42 hours (CTL assay, Pan-T-cells and MOLM-13, E:T = 5:1) came to 32.8%.

In the case of B6, the EC50 of cytolysis at 18 hours (CTL assay, Pan-T-cells and MOLM-13, E:T = 5:1) was 4.69 ng/mL; the EC50 of cytolysis at 42 hours (CTL assay, Pan-T-cells and MOLM-13, E:T = 5:1) is 0.91 ng/mL; the R: ratio of 18 hour EC50 to DART-A-WT (CTL assay, Pan-T-cells and MOLM-13, E:T = 5:1) was determined as 59.3; the R: ratio of 42 hour EC50 to DART-A-WT (CTL assay, Pan-T-cells and MOLM-13, E:T = 5:1) was 324. Besides, the max % CytoTox at 18 hours (CTL assay, Pan-T-cells and MOLM-13, E:T = 5:1) was 41.3%; the max % CytoTox at 42 hours (CTL assay, Pan-T-cells and MOLM-13, E:T = 5:1) worked out at 30.6%.

For the molecule B7, the EC50 of cytolysis at 18 hours (CTL assay, Pan-T-cells and MOLM-13, E:T = 5:1) was determined as 1.22 ng/mL; the EC50 of cytolysis at 42 hours (CTL assay, Pan-T-cells and MOLM-13, E:T = 5:1) amounted to 0.203 ng/mL; the R: ratio of 18 hour EC50 to DART-A-WT (CTL assay, Pan-T-cells and MOLM-13, E:T = 5:1) stood at 15.5; the R: ratio of 42 hour EC50 to DART-A-WT (CTL assay, Pan-T-cells and MOLM-13, E:T = 5:1) turned out to be 72.3. This molecule gave a max % CytoTox at 18 hours (CTL assay, Pan-T-cells and MOLM-13, E:T = 5:1) of 45.1%; a max % CytoTox at 42 hours (CTL assay, Pan-T-cells and MOLM-13, E:T = 5:1) of 31.5%.

The target in a further test is CD3 (as used for the BIACORE kinetics of Table 11) (UniProt P07766). The test is described as follows: SPR (BIACORE). (SPR reads the build-up and loss of mass on a sensor chip optically.)
Sequence of CD3 (as used for the BIACORE kinetics of Table 11) (P07766 23-126): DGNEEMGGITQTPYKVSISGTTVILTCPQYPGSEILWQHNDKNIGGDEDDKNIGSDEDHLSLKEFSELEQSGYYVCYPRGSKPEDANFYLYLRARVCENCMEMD
By Kd is commonly meant the free concentration of one partner at which half of the binding sites on the other are occupied at equilibrium, for simple one-to-one binding. Read a low Kd as higher affinity. As a reminder, the koff is a measure of how fast the partners let go of each other. As a reminder, the kon is the rate constant with which the complex forms. High values mean fast association, low ones slow association. With B1, the Kd was found to be 22.5 nM, the R (KD ratio to DART-A-WT) turned out to be 2.8, the R (ka ratio to DART-A-WT) was 2 and the R (kd ratio to DART-A-WT) was found to be 5.6. In addition, the koff is 0.0229 s⁻¹ and the kon turned out to be 1.02e+06 M⁻¹ s⁻¹.

In the case of B2, the Kd turned out to be 107 nM, the R (KD ratio to DART-A-WT) is 13, the R (ka ratio to DART-A-WT) amounted to 0.7 and the R (kd ratio to DART-A-WT) turned out to be 9.2. The same molecule yielded a koff of 0.0375 s⁻¹ and a kon of 352000 M⁻¹ s⁻¹.

For the molecule B3, the Kd amounted to 57.2 nM, the R (KD ratio to DART-A-WT) was determined as 7, the R (ka ratio to DART-A-WT) worked out at 1.7 and the R (kd ratio to DART-A-WT) came to 12. The koff was found to be 0.0478 s⁻¹ and the kon was found to be 837000 M⁻¹ s⁻¹.

Take B4: the Kd was 12.8 nM, the R (KD ratio to DART-A-WT) came to 1.6, the R (ka ratio to DART-A-WT) came out at 1.7 and the R (kd ratio to DART-A-WT) came to 2.7. Moreover, the off-rate constant (koff) was found to be 0.0111 s⁻¹ and the kon stood at 866000 M⁻¹ s⁻¹.

As to B5, the Kd is 54.6 nM, the R (KD ratio to DART-A-WT) was 6.7, the R (ka ratio to DART-A-WT) worked out at 1.5 and the R (kd ratio to DART-A-WT) turned out to be 10. In addition, the koff is 0.0411 s⁻¹ and the kon was determined as 753000 M⁻¹ s⁻¹.

For B6, the dissociation constant (Kd) turned out to be 205 nM, the R (KD ratio to DART-A-WT) amounted to 25, the R (ka ratio to DART-A-WT) worked out at 0.6 and the R (kd ratio to DART-A-WT) was 14. This molecule displayed a koff of 0.0588 s⁻¹ and a kon of 287000 M⁻¹ s⁻¹.

Regarding B7, the Kd is 68.6 nM, the R (KD ratio to DART-A-WT) was found to be 8.4, the R (ka ratio to DART-A-WT) is 0.6 and the R (kd ratio to DART-A-WT) came out at 5.4. Further, the koff is 0.022 s⁻¹ and the kon worked out at 321000 M⁻¹ s⁻¹.

Values taken from patent US20240043537A1.
